Reference: doi:10.1101/2024.05.24.595734 (bioRxiv, 2024)

B1: PrfA^WT (Listeria monocytogenes virulence master regulator PrfA) (natural protein)
chain: GAMNAQAEEFKKYLETNGIKPKQFHKKELIFNQWDPQEYCIFLYDGITKLTSISENGTIMNLQYYKGAFVIMSGFIDTETSVGYYNLEVISEQATAYVIKINELKELLSKNLTHFFYVFQTLQKQVSYSLAKFNDFSINGKLGSICGQLLILTYVYGKETPDGIKITLDNLTMQELGYSSGIAHSSAVSRIISKLKQEKVIVYKNSCFYVQNLDYLKRYAPKLDEWFYLACPATWGKLN

How the values were obtained:
[1] = target: PrfA^WT (Listeria monocytogenes virulence master regulator PrfA) (Listeria monocytogenes) (UniProt P22262); experiment: ITC
crystal structure = target: the molecule itself; experiment: crystal structure

| Molecule | Kd [1] [µM] | binding result (crystal structure) |
| --- | --- | --- |
| tripeptide EVF | 12 | – |
| B1 | – | binds |
| EVFL [tetrapeptide EVFL] | 15 | – |
| STLL [tetrapeptide STLL] | 32 | – |
| RGLL [tetrapeptide RGLL] | 145 | – |
